Laboratory results taken from US20260049138A1 (Chugai, published 2026).

B1: GLS3000 V94A one-arm antibody (antibody, human IgG1, kappa, L234A L235A, N297A, name in Kabat numbering)
heavy: QVQLVESGGGVVQPGRSLRLSCAASGFTFSNAWMHWVRQAPGKGLEWVAQIKAKSNNYATYYAESVKGRFTISRDDSKNSLYLQMNSLKTEDTAVYYCRYVHYGAYYGVDAWGQGTTVTVSSASTKGPSVFPLAPSSKSTSGGTAALGCLVKDYFPEPVTVSWNSGALTSGVHTFPAVLQSSGLYSLSSVVTVPSSSLGTQTYICNVNHKPSNTKVDKKVEPKSCDKTHTCPPCPAPEAAGGPSVFLFPPKPKDTLMISRTPEVTCVVVDVSHEDPEVKFNWYVDGVEVHNAKTKPREEQYASTYRVVSVLTVLHQDWLNGKEYKCKVSNKALPAPIEKTISKAKGQPREPQVYTLPPSRCELTKNQVSLSCAVKGFYPSDIAVEWESNGQPENNYKTTPPVLDSDGSFFLVSKLTVDKSRWQQGNVFSCSVMHEALHNHYTQKSLSLSPDYKDDDDK
chain: EPKSSDKTHTCPPCPAPELLGGPSVFLFPPKPKDTLMISRTPEVTCVVVDVSHEDPEVKFNWYVDGVEVHNAKTKPREEQYNSTYRVVSVLTVLHQDWLNGKEYKCKVSNKALPAPIEKTISKAKGQPREPQVCTLPPSRDELTKNQVSLWCLVKGFYPSDIAVEWESNGQPENNYKTTPPVLDSDGSFFLYSKLTVDKSRWQQGNVFSCSVMHEALHNRYTQKSLSLSP
light: DIVMTQSPLSLPVTPGEPASISCRSSQSLVHSNRNTYLHWYQQKPGQAPRLLIYKVSNRFSGVPDRFSGSGSGTDFTLKISRVEAEDVGVYYCGQGTQAPYTFGQGTKLEIKRTVAAPSVFIFPPSDEQLKSGTASVVCLLNNFYPREAKVQWKVDNALQSGNSQESVTEQDSKDSTYSLSSTLTLSKADYEKHKVYACEVTHQGLSSPVTKSFNRGEC
B2: GLS3000 V94D one-arm antibody (antibody, human IgG1, kappa, L234A L235A, N297A, name in Kabat numbering)
heavy: QVQLVESGGGVVQPGRSLRLSCAASGFTFSNAWMHWVRQAPGKGLEWVAQIKAKSNNYATYYAESVKGRFTISRDDSKNSLYLQMNSLKTEDTAVYYCRYVHYGAYYGVDAWGQGTTVTVSSASTKGPSVFPLAPSSKSTSGGTAALGCLVKDYFPEPVTVSWNSGALTSGVHTFPAVLQSSGLYSLSSVVTVPSSSLGTQTYICNVNHKPSNTKVDKKVEPKSCDKTHTCPPCPAPEAAGGPSVFLFPPKPKDTLMISRTPEVTCVVVDVSHEDPEVKFNWYVDGVEVHNAKTKPREEQYASTYRVVSVLTVLHQDWLNGKEYKCKVSNKALPAPIEKTISKAKGQPREPQVYTLPPSRCELTKNQVSLSCAVKGFYPSDIAVEWESNGQPENNYKTTPPVLDSDGSFFLVSKLTVDKSRWQQGNVFSCSVMHEALHNHYTQKSLSLSPDYKDDDDK
chain: EPKSSDKTHTCPPCPAPELLGGPSVFLFPPKPKDTLMISRTPEVTCVVVDVSHEDPEVKFNWYVDGVEVHNAKTKPREEQYNSTYRVVSVLTVLHQDWLNGKEYKCKVSNKALPAPIEKTISKAKGQPREPQVCTLPPSRDELTKNQVSLWCLVKGFYPSDIAVEWESNGQPENNYKTTPPVLDSDGSFFLYSKLTVDKSRWQQGNVFSCSVMHEALHNRYTQKSLSLSP
light: DIVMTQSPLSLPVTPGEPASISCRSSQSLVHSNRNTYLHWYQQKPGQAPRLLIYKVSNRFSGVPDRFSGSGSGTDFTLKISRVEAEDVGVYYCGQGTQDPYTFGQGTKLEIKRTVAAPSVFIFPPSDEQLKSGTASVVCLLNNFYPREAKVQWKVDNALQSGNSQESVTEQDSKDSTYSLSSTLTLSKADYEKHKVYACEVTHQGLSSPVTKSFNRGEC
B3: GLS3000 V94E one-arm antibody (antibody, human IgG1, kappa, L234A L235A, N297A, name in Kabat numbering)
heavy: QVQLVESGGGVVQPGRSLRLSCAASGFTFSNAWMHWVRQAPGKGLEWVAQIKAKSNNYATYYAESVKGRFTISRDDSKNSLYLQMNSLKTEDTAVYYCRYVHYGAYYGVDAWGQGTTVTVSSASTKGPSVFPLAPSSKSTSGGTAALGCLVKDYFPEPVTVSWNSGALTSGVHTFPAVLQSSGLYSLSSVVTVPSSSLGTQTYICNVNHKPSNTKVDKKVEPKSCDKTHTCPPCPAPEAAGGPSVFLFPPKPKDTLMISRTPEVTCVVVDVSHEDPEVKFNWYVDGVEVHNAKTKPREEQYASTYRVVSVLTVLHQDWLNGKEYKCKVSNKALPAPIEKTISKAKGQPREPQVYTLPPSRCELTKNQVSLSCAVKGFYPSDIAVEWESNGQPENNYKTTPPVLDSDGSFFLVSKLTVDKSRWQQGNVFSCSVMHEALHNHYTQKSLSLSPDYKDDDDK
chain: EPKSSDKTHTCPPCPAPELLGGPSVFLFPPKPKDTLMISRTPEVTCVVVDVSHEDPEVKFNWYVDGVEVHNAKTKPREEQYNSTYRVVSVLTVLHQDWLNGKEYKCKVSNKALPAPIEKTISKAKGQPREPQVCTLPPSRDELTKNQVSLWCLVKGFYPSDIAVEWESNGQPENNYKTTPPVLDSDGSFFLYSKLTVDKSRWQQGNVFSCSVMHEALHNRYTQKSLSLSP
light: DIVMTQSPLSLPVTPGEPASISCRSSQSLVHSNRNTYLHWYQQKPGQAPRLLIYKVSNRFSGVPDRFSGSGSGTDFTLKISRVEAEDVGVYYCGQGTQEPYTFGQGTKLEIKRTVAAPSVFIFPPSDEQLKSGTASVVCLLNNFYPREAKVQWKVDNALQSGNSQESVTEQDSKDSTYSLSSTLTLSKADYEKHKVYACEVTHQGLSSPVTKSFNRGEC
B4: GLS3000 V94F one-arm antibody (antibody, human IgG1, kappa, L234A L235A, N297A, name in Kabat numbering)
heavy: QVQLVESGGGVVQPGRSLRLSCAASGFTFSNAWMHWVRQAPGKGLEWVAQIKAKSNNYATYYAESVKGRFTISRDDSKNSLYLQMNSLKTEDTAVYYCRYVHYGAYYGVDAWGQGTTVTVSSASTKGPSVFPLAPSSKSTSGGTAALGCLVKDYFPEPVTVSWNSGALTSGVHTFPAVLQSSGLYSLSSVVTVPSSSLGTQTYICNVNHKPSNTKVDKKVEPKSCDKTHTCPPCPAPEAAGGPSVFLFPPKPKDTLMISRTPEVTCVVVDVSHEDPEVKFNWYVDGVEVHNAKTKPREEQYASTYRVVSVLTVLHQDWLNGKEYKCKVSNKALPAPIEKTISKAKGQPREPQVYTLPPSRCELTKNQVSLSCAVKGFYPSDIAVEWESNGQPENNYKTTPPVLDSDGSFFLVSKLTVDKSRWQQGNVFSCSVMHEALHNHYTQKSLSLSPDYKDDDDK
chain: EPKSSDKTHTCPPCPAPELLGGPSVFLFPPKPKDTLMISRTPEVTCVVVDVSHEDPEVKFNWYVDGVEVHNAKTKPREEQYNSTYRVVSVLTVLHQDWLNGKEYKCKVSNKALPAPIEKTISKAKGQPREPQVCTLPPSRDELTKNQVSLWCLVKGFYPSDIAVEWESNGQPENNYKTTPPVLDSDGSFFLYSKLTVDKSRWQQGNVFSCSVMHEALHNRYTQKSLSLSP
light: DIVMTQSPLSLPVTPGEPASISCRSSQSLVHSNRNTYLHWYQQKPGQAPRLLIYKVSNRFSGVPDRFSGSGSGTDFTLKISRVEAEDVGVYYCGQGTQFPYTFGQGTKLEIKRTVAAPSVFIFPPSDEQLKSGTASVVCLLNNFYPREAKVQWKVDNALQSGNSQESVTEQDSKDSTYSLSSTLTLSKADYEKHKVYACEVTHQGLSSPVTKSFNRGEC
B5: GLS3000 V94G one-arm antibody (antibody, human IgG1, kappa, L234A L235A, N297A, name in Kabat numbering)
heavy: QVQLVESGGGVVQPGRSLRLSCAASGFTFSNAWMHWVRQAPGKGLEWVAQIKAKSNNYATYYAESVKGRFTISRDDSKNSLYLQMNSLKTEDTAVYYCRYVHYGAYYGVDAWGQGTTVTVSSASTKGPSVFPLAPSSKSTSGGTAALGCLVKDYFPEPVTVSWNSGALTSGVHTFPAVLQSSGLYSLSSVVTVPSSSLGTQTYICNVNHKPSNTKVDKKVEPKSCDKTHTCPPCPAPEAAGGPSVFLFPPKPKDTLMISRTPEVTCVVVDVSHEDPEVKFNWYVDGVEVHNAKTKPREEQYASTYRVVSVLTVLHQDWLNGKEYKCKVSNKALPAPIEKTISKAKGQPREPQVYTLPPSRCELTKNQVSLSCAVKGFYPSDIAVEWESNGQPENNYKTTPPVLDSDGSFFLVSKLTVDKSRWQQGNVFSCSVMHEALHNHYTQKSLSLSPDYKDDDDK
chain: EPKSSDKTHTCPPCPAPELLGGPSVFLFPPKPKDTLMISRTPEVTCVVVDVSHEDPEVKFNWYVDGVEVHNAKTKPREEQYNSTYRVVSVLTVLHQDWLNGKEYKCKVSNKALPAPIEKTISKAKGQPREPQVCTLPPSRDELTKNQVSLWCLVKGFYPSDIAVEWESNGQPENNYKTTPPVLDSDGSFFLYSKLTVDKSRWQQGNVFSCSVMHEALHNRYTQKSLSLSP
light: DIVMTQSPLSLPVTPGEPASISCRSSQSLVHSNRNTYLHWYQQKPGQAPRLLIYKVSNRFSGVPDRFSGSGSGTDFTLKISRVEAEDVGVYYCGQGTQGPYTFGQGTKLEIKRTVAAPSVFIFPPSDEQLKSGTASVVCLLNNFYPREAKVQWKVDNALQSGNSQESVTEQDSKDSTYSLSSTLTLSKADYEKHKVYACEVTHQGLSSPVTKSFNRGEC
B6: GLS3000 V94H one-arm antibody (antibody, human IgG1, kappa, L234A L235A, N297A, name in Kabat numbering)
heavy: QVQLVESGGGVVQPGRSLRLSCAASGFTFSNAWMHWVRQAPGKGLEWVAQIKAKSNNYATYYAESVKGRFTISRDDSKNSLYLQMNSLKTEDTAVYYCRYVHYGAYYGVDAWGQGTTVTVSSASTKGPSVFPLAPSSKSTSGGTAALGCLVKDYFPEPVTVSWNSGALTSGVHTFPAVLQSSGLYSLSSVVTVPSSSLGTQTYICNVNHKPSNTKVDKKVEPKSCDKTHTCPPCPAPEAAGGPSVFLFPPKPKDTLMISRTPEVTCVVVDVSHEDPEVKFNWYVDGVEVHNAKTKPREEQYASTYRVVSVLTVLHQDWLNGKEYKCKVSNKALPAPIEKTISKAKGQPREPQVYTLPPSRCELTKNQVSLSCAVKGFYPSDIAVEWESNGQPENNYKTTPPVLDSDGSFFLVSKLTVDKSRWQQGNVFSCSVMHEALHNHYTQKSLSLSPDYKDDDDK
chain: EPKSSDKTHTCPPCPAPELLGGPSVFLFPPKPKDTLMISRTPEVTCVVVDVSHEDPEVKFNWYVDGVEVHNAKTKPREEQYNSTYRVVSVLTVLHQDWLNGKEYKCKVSNKALPAPIEKTISKAKGQPREPQVCTLPPSRDELTKNQVSLWCLVKGFYPSDIAVEWESNGQPENNYKTTPPVLDSDGSFFLYSKLTVDKSRWQQGNVFSCSVMHEALHNRYTQKSLSLSP
light: DIVMTQSPLSLPVTPGEPASISCRSSQSLVHSNRNTYLHWYQQKPGQAPRLLIYKVSNRFSGVPDRFSGSGSGTDFTLKISRVEAEDVGVYYCGQGTQHPYTFGQGTKLEIKRTVAAPSVFIFPPSDEQLKSGTASVVCLLNNFYPREAKVQWKVDNALQSGNSQESVTEQDSKDSTYSLSSTLTLSKADYEKHKVYACEVTHQGLSSPVTKSFNRGEC

Target: T1, CD3ε homodimer protein (human, UniProt P07766 23-126, limits assumed)
T1 construct: also called CD3 (CD3ε)
T1 sequence (P07766 23-126 limits assumed): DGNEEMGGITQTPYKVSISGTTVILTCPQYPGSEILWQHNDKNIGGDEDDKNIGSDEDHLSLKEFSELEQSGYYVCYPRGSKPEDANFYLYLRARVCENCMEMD
Assay: SPR Biacore T200, CD3ε homodimer on chip;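 also: Light-chain single-residue variant antibodies injected over amine-coupled CD3ε homodimer on a CM4 chip at 25 °C, bound amount divided by that of the GLS3000-containing antibody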

Binder	ratio of amount bound vs unaltered GLS3000
B1	1.05
B2	0.89
B3	0.5
B4	0.71
B5	0.48
B6	0.78
